# Target: Hepatocyte growth factor/scatter factor (HGF) (UniProt P14210+P14210)
# Test: FP
# Details: 2'-F pyrimidines
# Hepatocyte growth factor/scatter factor (HGF), sequence (P14210 32-494, chain 1 of 2): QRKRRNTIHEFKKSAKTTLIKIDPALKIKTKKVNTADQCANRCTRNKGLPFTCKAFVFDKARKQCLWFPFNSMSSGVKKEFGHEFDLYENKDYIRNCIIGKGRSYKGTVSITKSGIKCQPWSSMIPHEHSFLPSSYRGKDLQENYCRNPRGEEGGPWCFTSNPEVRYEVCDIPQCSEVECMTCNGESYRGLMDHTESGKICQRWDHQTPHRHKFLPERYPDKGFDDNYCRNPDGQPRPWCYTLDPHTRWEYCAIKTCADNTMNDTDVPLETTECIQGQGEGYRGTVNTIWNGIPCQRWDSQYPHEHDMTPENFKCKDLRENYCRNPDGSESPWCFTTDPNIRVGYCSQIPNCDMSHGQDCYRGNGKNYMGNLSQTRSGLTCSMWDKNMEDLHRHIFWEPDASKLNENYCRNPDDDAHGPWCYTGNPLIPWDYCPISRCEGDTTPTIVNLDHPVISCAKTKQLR
# Hepatocyte growth factor/scatter factor (HGF), sequence (P14210 495-728, chain 2 of 2): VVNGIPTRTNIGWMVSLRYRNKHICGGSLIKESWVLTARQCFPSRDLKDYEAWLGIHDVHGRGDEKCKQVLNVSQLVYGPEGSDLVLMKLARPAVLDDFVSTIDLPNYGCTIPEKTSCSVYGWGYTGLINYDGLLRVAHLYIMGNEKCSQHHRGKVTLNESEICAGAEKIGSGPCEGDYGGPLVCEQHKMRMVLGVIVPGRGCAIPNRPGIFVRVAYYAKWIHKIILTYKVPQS
sequence,measurement,value
GAGAGNUCCUAUUUAUGACAUCCCAUGCCCCCA [Tr65],Kd,1.4 nM

# From patent publication US20030049644
